{"source": "patent US20220119510A1", "about": "“ANTI-POLYETHYLENE GLYCOL (PEG) ANTIBODY MOUSE MODEL FOR RIGOROUS ASSESSMENT OF PEG-BASED THERAPIES: ADJUVANT-FREE INDUCTION MODEL” (Northwestern University, priority 2020, published 2022)", "origin": "cited, not measured here", "molecules": {"B1": {"name": "PEGylated ovalbumin: PEGylated ovalbumin used to immunize rabbits (conjugate, UniProt P01012 2-386, looked up)", "Ovalbumin": "GSIGAASMEFCFDVFKELKVHHANENIFYCPIAIMSALAMVYLGAKDSTRTQINKVVRFDKLPGFGDSIEAQCGTSVNVHSSLRDILNQITKPNDVYSFSLASRLYAEERYPILPEYLQCVKELYRGGLEPINFQTAADQARELINSWVESQTNGIIRNVLQPSSVDSQTAMVLVNAIVFKGLWEKAFKDEDTQAMPFRVTEQESKPVQMMYQIGLFRVASMASEKMKILELPFASGTMSMLVLLPDEVSGLEQLESIINFEKLTEWTSSNVMEERKIKVYLPRMKMEEKYNLTSVLMAMGITDVFSSSANLSGISSAESLKISQAVHAAHAEINEAGREVVGSAEAGVDAASVSEEFRADHPFLFCIKHIATNAVLFFGRCVSP", "modifications": "PEGylated", "notes": "PEGylated ovalbumin used to immunize rabbits"}}, "test_system": "rabbits", "data": [{"molecule": "B1", "values": [{"measurement": "anti-PEG antibodies after immunization", "result": "anti-PEG antibodies were first observed"}]}]}
